The numbers were not newly measured in publication PMC3179904, which cites them from elsewhere.

For this data set, the target named is CheA (Escherichia coli) (UniProt P07363).
UniProt P07363, sequence (P07363 whole entry): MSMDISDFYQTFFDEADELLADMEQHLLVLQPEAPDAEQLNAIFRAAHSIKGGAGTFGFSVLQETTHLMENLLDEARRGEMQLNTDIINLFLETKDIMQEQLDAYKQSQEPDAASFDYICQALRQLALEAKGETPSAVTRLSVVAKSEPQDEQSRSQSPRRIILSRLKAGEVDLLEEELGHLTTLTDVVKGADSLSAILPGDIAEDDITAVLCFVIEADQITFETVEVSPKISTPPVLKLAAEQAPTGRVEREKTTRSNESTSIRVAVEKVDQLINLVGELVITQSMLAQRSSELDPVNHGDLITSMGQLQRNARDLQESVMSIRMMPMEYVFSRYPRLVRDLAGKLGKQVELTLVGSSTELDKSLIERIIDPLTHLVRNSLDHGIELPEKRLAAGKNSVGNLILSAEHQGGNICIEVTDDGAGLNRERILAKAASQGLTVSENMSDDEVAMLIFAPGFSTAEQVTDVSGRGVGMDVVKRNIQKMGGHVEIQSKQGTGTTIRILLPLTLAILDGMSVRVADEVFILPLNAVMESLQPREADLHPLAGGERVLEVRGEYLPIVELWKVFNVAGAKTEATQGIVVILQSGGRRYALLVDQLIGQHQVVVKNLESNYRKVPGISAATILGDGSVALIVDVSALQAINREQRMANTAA

The Kd is the concentration at which binding is half-saturated. For CheW (from UniProt P0A964), the Kd is 17 µM.
